EP2225268B1

Key:
[1] = biological target: Wild-type recombinant human NGAL dimer calibrators treated with DTT (human) (UniProt P80188); test: … sandwich CMIA, capture HYB 211-01, detection acridinium-HYB 211-02; DTT-treated against untreated dimer calibrator; target 250 ng/mL
[2] = biological target: Wild-type recombinant human NGAL dimer calibrators treated with DTT (human) (UniProt P80188); test: … sandwich CMIA, capture HYB 211-01, detection acridinium-HYB 211-02; calibrator B, NGAL 5 ng/mL
[3] = biological target: Wild-type recombinant human NGAL monomer expressed in CHO cells (human) (UniProt P80188); test: as above
[4] = biological target: Wild-type recombinant human NGAL dimer expressed in CHO cells (human) (UniProt P80188); test: as above
[5] = biological target: Wild-type recombinant human NGAL dimer calibrators treated with DTT (human) (UniProt P80188); test: … sandwich CMIA, capture HYB 211-01, detection acridinium-HYB 211-02; calibrator D, NGAL 250 ng/mL
[6] = biological target: Wild-type recombinant human NGAL monomer expressed in CHO cells (human) (UniProt P80188); test: as above
[7] = biological target: Wild-type recombinant human NGAL dimer expressed in CHO cells (human) (UniProt P80188); test: as above
[8] = biological target: Wild-type recombinant human NGAL dimer calibrators treated with DTT (human) (UniProt P80188); test: … sandwich CMIA, capture HYB 211-01, detection acridinium-HYB 211-02; curve fit with monomer calibrators; target 1000 ng/mL
[9] = biological target: Wild-type recombinant human NGAL monomer expressed in CHO cells (human) (UniProt P80188); test: as above
[10] = biological target: Wild-type recombinant human NGAL dimer expressed in CHO cells (human) (UniProt P80188); test: as above
[11] = biological target: Wild-type recombinant human NGAL dimer calibrators treated with DTT (human) (UniProt P80188); test: … sandwich CMIA, capture HYB 211-01, detection acridinium-HYB 211-02; curve fit with monomer calibrators; target 50 ng/mL
[12] = biological target: Wild-type recombinant human NGAL monomer expressed in CHO cells (human) (UniProt P80188); test: as above
[13] = biological target: Wild-type recombinant human NGAL dimer expressed in CHO cells (human) (UniProt P80188); test: as above
[14] = biological target: Wild-type recombinant human NGAL dimer calibrators treated with DTT (human) (UniProt P80188); test: … sandwich CMIA, capture HYB 211-01, detection acridinium-HYB 211-02; curve fit with monomer calibrators; target 5 ng/mL
[15] = biological target: Wild-type recombinant human NGAL monomer expressed in CHO cells (human) (UniProt P80188); test: as above
[16] = biological target: Wild-type recombinant human NGAL dimer expressed in CHO cells (human) (UniProt P80188); test: as above
[17] = biological target: Wild-type recombinant human NGAL monomer expressed in CHO cells (human) (UniProt P80188); test: … sandwich CMIA, capture 1-2322-455, detection acridinium-1-903-430; curve fit with monomer calibrators; target 600 ng/mL
[18] = biological target: Wild-type recombinant human NGAL dimer expressed in CHO cells (human) (UniProt P80188); test: as above
[19] = biological target: Wild-type recombinant human NGAL monomer expressed in CHO cells (human) (UniProt P80188); test: … sandwich CMIA, capture 1-2322-455, detection acridinium-1-903-430; monomer calibrator plus TCEP; NGAL 250 ng/mL
[20] = biological target: Wild-type recombinant human NGAL dimer expressed in CHO cells (human) (UniProt P80188); test: … sandwich CMIA, capture 1-2322-455, detection acridinium-1-903-430; NGAL Dimer Low, 150 ng/mL dimer calibrator
[21] = biological target: Wild-type recombinant human NGAL monomer expressed in CHO cells (human) (UniProt P80188); test: … sandwich CMIA, capture 1-2322-455, detection acridinium-1-903-430; monomer calibrator plus TCEP; curve fit with monomer calibrators; target 5 ng/mL
[22] = biological target: Wild-type recombinant human NGAL monomer expressed in CHO cells (human) (UniProt P80188); test: … sandwich CMIA, capture 1-2322-455, detection acridinium-1-903-430; monomer calibrator plus TCEP; NGAL 600 ng/mL
[23] = biological target: Wild-type recombinant human NGAL dimer calibrators with TCEP in the reaction mixture (human) (UniProt P80188); test: … sandwich CMIA, capture 1-2322-455, detection acridinium-1-903-430; TCEP in reaction; curve fit with monomer calibrators; target 50 ng/mL
[24] = biological target: Wild-type recombinant human NGAL monomer expressed in CHO cells (human) (UniProt P80188); test: … sandwich CMIA, capture 1-2322-455, detection acridinium-1-903-430; monomer calibrator plus TCEP; curve fit with monomer calibrators; target 50 ng/mL
[25] = biological target: Wild-type recombinant human NGAL monomer expressed in CHO cells (human) (UniProt P80188); test: … sandwich CMIA, capture 1-2322-455, detection acridinium-1-903-430; monomer calibrator plus TCEP; NGAL 1000 ng/mL

Molecule “anti-NGAL antibody HYB 211-01 from AntibodyShop A/S, Gentofte, Denmark” has a % Increase due to DTT [1] of 229%, an RLUs [2] of 11400 RLUs and an RLUs [3] of 12000 RLUs. It also gave an RLUs [4] of 4050 RLUs, an RLUs [5] of 378000 RLUs and an RLUs [6] of 396000 RLUs. The RLUs [7] was 142000 RLUs, the Curve Fit Results [8] was 924 ng/mL and the Curve Fit Results [9] was 1000 ng/mL. For the same molecule, the Curve Fit Results [10] was 245 ng/mL, the Curve Fit Results [11] was 49 ng/mL and the Curve Fit Results [12] was 49.5 ng/mL. For the same molecule, the Curve Fit Results [13] was 14.1 ng/mL, the Curve Fit Results [14] was 4.7 ng/mL and the Curve Fit Results [15] was 5.1 ng/mL. For the same molecule, the Curve Fit Results [16] was 1.4 ng/mL.

B1: antibody produced by murine hybridoma cell line 1-2322-455 having ATCC Accession No. PTA-8024 (antibody, V domains shown)
VH: EVQLVESGGGLVQPGGSLKLSCAASGFTFNNYYMSWVRQTPERRLEWVAYISSSGGSTYYSDSVRGRFTISRDTARNTLYLQMTSLKSEDTAMYYCARHFGDYSYFDYWGQGTTLTVSS
VL: DIQMTQSPASLSASVGETVTITCRASENFYSYLAWYQQKQGKSPQLLVYNAKTLAEGVPSRFSGSGSGTQFSLKINSLQPEDFGTYYCQHHYDIPLTFGAGTKLELKR
B1 showed a Curve Fit Results [17] of 591 ng/mL, a Curve Fit Results [18] of 173 ng/mL and an RLUs [19] of 928000 RLUs. It also gave an NGAL concentration detected [20] of 33.9 ng/mL, a Curve Fit Results [21] of 4.6 ng/mL and an RLUs [22] of 1.53e+06 RLUs. It also gave a Curve Fit Results [23] of 24.5 ng/mL, a Curve Fit Results [24] of 48.6 ng/mL and an RLUs [25] of 1.95e+06 RLUs.
